Biological target: T1, human insulin receptor (human IR-A) (Homo sapiens, UniProt P06213)
T1 construct: solubilized human IR (holoreceptor); expressed in transfected cells; host or cells: baby hamster kidney (BHK) cells, stably transfected (pZem vector); detergent-solubilised and semipurified on wheat germ agglutinin
Assay: Insulin receptor binding assay (SPA, on solubilised insulin receptor)
Details: comparison table of side chain and parent insulin mutations (rel. to HI)
Method: Insulin Receptor Binding Assay (on Solubilised Insulin Receptor)
Competition binding experiments were performed in 96-well plates (polystyrene Optiplate-96, PerkinElmer) on an Eppendorf epMotion 5075 robot using solubilized human IR (holoreceptor) semipurified by wheat germ agglutinin purification from baby hamster kidney (BHK) cells, which were stably transfected with the pZem vector containing the human IR-A or IR-B insert.

T1 sequence (P06213 28-746 isoform P06213-2 limits assumed): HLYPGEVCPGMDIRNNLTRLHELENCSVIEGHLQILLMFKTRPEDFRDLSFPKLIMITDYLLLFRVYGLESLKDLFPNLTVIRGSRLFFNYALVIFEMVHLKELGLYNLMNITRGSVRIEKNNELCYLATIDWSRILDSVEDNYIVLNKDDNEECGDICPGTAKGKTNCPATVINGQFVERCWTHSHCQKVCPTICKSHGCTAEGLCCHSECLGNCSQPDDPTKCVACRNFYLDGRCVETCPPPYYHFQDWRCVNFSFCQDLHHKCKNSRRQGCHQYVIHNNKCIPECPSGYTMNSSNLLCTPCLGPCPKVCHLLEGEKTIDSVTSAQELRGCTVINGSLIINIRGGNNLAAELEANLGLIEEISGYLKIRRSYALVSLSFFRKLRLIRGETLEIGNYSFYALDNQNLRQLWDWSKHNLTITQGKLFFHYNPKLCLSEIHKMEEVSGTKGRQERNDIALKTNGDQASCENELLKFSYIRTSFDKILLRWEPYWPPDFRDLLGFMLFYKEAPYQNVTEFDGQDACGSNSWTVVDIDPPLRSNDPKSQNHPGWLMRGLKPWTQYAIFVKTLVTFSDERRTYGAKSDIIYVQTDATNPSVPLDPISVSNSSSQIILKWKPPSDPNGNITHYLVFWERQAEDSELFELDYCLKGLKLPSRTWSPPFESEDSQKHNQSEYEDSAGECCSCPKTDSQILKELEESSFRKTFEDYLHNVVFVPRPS
T1 sequence (P06213 763-1382 partner limits assumed): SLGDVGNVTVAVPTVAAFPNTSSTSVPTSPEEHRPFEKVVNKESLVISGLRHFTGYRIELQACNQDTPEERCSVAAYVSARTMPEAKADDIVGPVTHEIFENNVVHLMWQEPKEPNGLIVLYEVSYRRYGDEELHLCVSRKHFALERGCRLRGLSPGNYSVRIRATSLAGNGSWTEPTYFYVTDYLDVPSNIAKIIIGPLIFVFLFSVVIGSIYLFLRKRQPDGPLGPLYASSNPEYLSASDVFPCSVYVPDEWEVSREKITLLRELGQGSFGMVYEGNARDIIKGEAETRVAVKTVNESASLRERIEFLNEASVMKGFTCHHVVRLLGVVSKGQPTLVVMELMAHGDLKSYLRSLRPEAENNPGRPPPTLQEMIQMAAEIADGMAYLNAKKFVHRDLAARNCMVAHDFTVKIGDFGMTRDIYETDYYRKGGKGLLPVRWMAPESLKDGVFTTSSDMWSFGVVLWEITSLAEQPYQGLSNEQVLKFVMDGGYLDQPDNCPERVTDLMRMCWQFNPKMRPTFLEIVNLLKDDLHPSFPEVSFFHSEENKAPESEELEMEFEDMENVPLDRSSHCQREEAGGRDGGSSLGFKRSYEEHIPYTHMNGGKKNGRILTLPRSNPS

Substance: C18-gGlu- desB30: desB30 human insulin with side chain C18-gGlu- (cell cut off), no additional disulfide bond
- Relative IR-A affinity SPA assay (@ 0% HSA) (0% HSA): 10.4
- Relative IR-A affinity SPA assay (@ […] ([…] (HSA)): 0.70

From patent publication US9512195B2, “Insulin derivatives containing additional disulfide bonds” (Novo Nordisk A/S, priority 2010, dated 2016)
